Results taken from patent US20140242093A1, “METHODS AND COMPOSITIONS FOR MODULATING THE INNATE IMMUNE RESPONSE AND/OR MYOGENESIS IN A MAMMALIAN SUBJECT” (FRED HUTCHINSON CANCER RESEARCH CENTER, priority 2011, published 2014).
Entries after “also recorded” stand apart in the source; their conditions may differ.

Key:
[1] = test system: 31-bp oligonucleotides containing the putative DUX4 binding site; assay: Electromobility shift assay (EMSA); design: species or system human; details: in vitro translated protein; TRIM48, CSF1R, THE1D oligos
Procedure: EMSA was performed with ^32P-labeled 31-bp oligonucleotides from endogenous genomic sequences containing the putative DUX4 binding site as probes (sequences below; only forward shown). Radiolabeled probes were incubated with in vitro translated protein generated from pCS2-DUX4-fl or pCS2-DUX4-s^2 vectors using the TNT SP6 Coupled Wheat Germ Extract System (Promega) according to manufacturer's instructions. To obtain supershift of protein-DNA complexes, 0.1 μg of E14-3 anti-DUX4 rabbit monoclonal antibody was added to the mixtures. For competition experiments, excess unlabeled probes of either wild-type or mutant sequences were included in the binding reaction. The gels were prepared and run as previously described (Knoepfler et al., 1999).

[2] = test system: human rhabdomyosarcoma cell line RD; assay: Luciferase reporter assay with DUX4 binding sites; format: cell-based
Procedure: The DUX4 binding site in the ZSCAN4 pGL3-promoter construct was either reversed in orientation (as shown in FIG. 3D) or moved downstream of the reporter gene (as shown in FIG. 3E). […] Transfections and luciferase assays were done as in main methods. Data are given as the averages±SD of triplicates.
Transient DNA transfections of RD cells were performed using SuperFect (Qiagen) according to manufacturer specifications. Briefly, 3×10^5 cells were seeded per 35 mm plate the day prior to transfection. […] Cells were lysed 24 h post-transfection in Passive Lysis Buffer (Promega). Luciferase activities were quantified using reagents from the Dual-Luciferase Reporter Assay System (Promega) following manufacturer's instructions. Light emission was measured using BioTek Synergy2 luminometer. Luciferase data are given as the averages±SD of at least triplicates.

[3] = test system: FSHD cultured myoblasts; assay: Dominant negative inhibition of DUX4-fl by lenti-DUX4-s in FSHD muscle cells; format: cell-based, human; details: lentiviral expression in FSHD muscle cells, 48 hours of differentiation
Procedure: Simultaneously, cells were transduced by lentivirus carrying DUX4-s or GFP along with 8 μg/mL polybrene. Cells were washed and changed to plain differentiation media after 24 hours. Cells were harvested for RNA after 48 hours of differentiation. Untransduced cells were used to assess baseline expression of DUX4-fl target genes.

[4] = test system: Human myoblasts; assay: Expression array of the innate immune response to lentiviral infection versus uninfected cells; format: cell-based
Procedure: RNA was harvested from the lenti-viral infected cells and uninfected control cells at 24 hours after infection.

B1: DUX4-s: short splice form of DUX4 (SEQ ID NO:112), keeps the double-homeobox domains, lacks the C-terminal activation domain (protein, listed as Homo sapiens)
chain: MALPTPSDSTLPAEARGRGRRRRLVWTPSQSEALRACFERNPYPGIATRERLAQAIGIPEPRVQIWFQNERSRQLRQHRRESRPWPGRRGPPEGRRKRTAVTGSQTALLLRAFEKDRFPGIAAREELARETGLPESRIQIWFQNRRARHPGQGGRAPAQV
binding to DUX4 core motifs [1]: specifically binds the same core binding site as DUX4-fl | luciferase expression from pGL3-promoter reporter with 31 bp DUX4 binding site ([2]; TRIM48 or ZSCAN4 site, co-transfection in RD cells): did not activate expression | effect on DUX4-fl reporter activation when co-expressed ([2]; ZSCAN4 1.9 kb reporter): interfered with the activity of DUX4-fl | endogenous expression of DUX4 target genes (PRAMEF1, RFPL2, MBD3L2) [3]: inhibited the endogenous expression of the target genes; also recorded: blocks expression of these three DUX4-fl target genes | DEFB103A and DEFB103B transcripts ([4]; expression array): not | CCL2 expression ratio vs GFP (.fc) ([4]; gene CCL2 NM_002982.3, vs lenti-GFP, 24 hours after infection): 0.44 log2 fold change | CCL2 expression ratio vs NoLenti (.fc) ([4]; gene CCL2 NM_002982.3, vs uninfected, 24 hours after infection): 2.82 log2 fold change | CCL5 expression ratio vs GFP (.fc) ([4]; gene CCL5 NM_002985.2, vs lenti-GFP, 24 hours after infection): 1.89 log2 fold change | CCL5 expression ratio vs NoLenti (.fc) ([4]; gene CCL5 NM_002985.2, vs uninfected, 24 hours after infection): 4.33 log2 fold change | CXCL1 expression ratio vs GFP (.fc) ([4]; gene CXCL1 NM_001511.1, vs lenti-GFP, 24 hours after infection): 0.20 log2 fold change | CXCL1 expression ratio vs NoLenti (.fc) ([4]; gene CXCL1 NM_001511.1, vs uninfected, 24 hours after infection): 3.36 log2 fold change | CXCL2 expression ratio vs GFP (.fc) ([4]; gene CXCL2 NM_002089.3, vs lenti-GFP, 24 hours after infection): 0.00 log2 fold change | CXCL2 expression ratio vs NoLenti (.fc) ([4]; gene CXCL2 NM_002089.3, vs uninfected, 24 hours after infection): 1.09 log2 fold change | CXCL5 expression ratio vs GFP (.fc) ([4]; gene CXCL5 NM_002994.3, vs lenti-GFP, 24 hours after infection): 0.82 log2 fold change | CXCL5 expression ratio vs NoLenti (.fc) ([4]; gene CXCL5 NM_002994.3, vs uninfected, 24 hours after infection): 2.60 log2 fold change | CXCL6 expression ratio vs GFP (.fc) ([4]; gene CXCL6 NM_002993.2, vs lenti-GFP, 24 hours after infection): 0.17 log2 fold change | CXCL6 expression ratio vs NoLenti (.fc) ([4]; gene CXCL6 NM_002993.2, vs uninfected, 24 hours after infection): 1.77 log2 fold change | DDX58 expression ratio vs GFP (.fc) ([4]; gene DDX58 NM_014314.3, vs lenti-GFP, 24 hours after infection): 0.02 log2 fold change | DDX58 expression ratio vs NoLenti (.fc) ([4]; gene DDX58 NM_014314.3, vs uninfected, 24 hours after infection): 2.14 log2 fold change | DHX58 (LGP2) expression ratio vs GFP (.fc) ([4]; gene DHX58 NM_024119.2, vs lenti-GFP, 24 hours after infection): 0.70 log2 fold change | DHX58 (LGP2) expression ratio vs NoLenti (.fc) ([4]; gene DHX58 NM_024119.2, vs uninfected, 24 hours after infection): 3.04 log2 fold change | IFI6 expression ratio vs GFP (.fc) ([4]; gene IFI6 NM_022872.2, vs lenti-GFP, 24 hours after infection): −0.04 log2 fold change | IFI6 expression ratio vs NoLenti (.fc) ([4]; gene IFI6 NM_022872.2, vs uninfected, 24 hours after infection): 5.05 log2 fold change | IFI16 expression ratio vs GFP (.fc) ([4]; gene IFI16 NM_005531.1, vs lenti-GFP, 24 hours after infection): 0.68 log2 fold change | IFI16 expression ratio vs NoLenti (.fc) ([4]; gene IFI16 NM_005531.1, vs uninfected, 24 hours after infection): 2.52 log2 fold change | IFI27 expression ratio vs GFP (.fc) ([4]; gene IFI27 NM_005532.3, vs lenti-GFP, 24 hours after infection): 0.27 log2 fold change | IFI27 expression ratio vs NoLenti (.fc) ([4]; gene IFI27 NM_005532.3, vs uninfected, 24 hours after infection): 7.60 log2 fold change | IFI35 expression ratio vs GFP (.fc) ([4]; gene IFI35 NM_005533.2, vs lenti-GFP, 24 hours after infection): 0.92 log2 fold change | IFI35 expression ratio vs NoLenti (.fc) ([4]; gene IFI35 NM_005533.2, vs uninfected, 24 hours after infection): 4.33 log2 fold change | IFI44L expression ratio vs GFP (.fc) ([4]; gene IFI44L NM_006820.1, vs lenti-GFP, 24 hours after infection): 0.47 log2 fold change | IFI44L expression ratio vs NoLenti (.fc) ([4]; gene IFI44L NM_006820.1, vs uninfected, 24 hours after infection): 6.22 log2 fold change | IFI44 expression ratio vs GFP (.fc) ([4]; gene IFI44 NM_006417.3, vs lenti-GFP, 24 hours after infection): 0.29 log2 fold change | IFI44 expression ratio vs NoLenti (.fc) ([4]; gene IFI44 NM_006417.3, vs uninfected, 24 hours after infection): 3.59 log2 fold change | IFIH1 (MDA5) expression ratio vs GFP (.fc) ([4]; gene IFIH1 NM_022168.2, vs lenti-GFP, 24 hours after infection): 1.66 log2 fold change | IFIH1 (MDA5) expression ratio vs NoLenti (.fc) ([4]; gene IFIH1 NM_022168.2, vs uninfected, 24 hours after infection): 5.34 log2 fold change | IFIT1 expression ratio vs GFP (.fc) ([4]; gene IFIT1 NM_001548.3, vs lenti-GFP, 24 hours after infection): 0.72 log2 fold change | IFIT1 expression ratio vs NoLenti (.fc) ([4]; gene IFIT1 NM_001548.3, vs uninfected, 24 hours after infection): 5.50 log2 fold change | IFIT3 expression ratio vs GFP (.fc) ([4]; gene IFIT3 NM_001549.2, vs lenti-GFP, 24 hours after infection): 1.81 log2 fold change | IFIT3 expression ratio vs NoLenti (.fc) ([4]; gene IFIT3 NM_001549.2, vs uninfected, 24 hours after infection): 5.49 log2 fold change | IFIT5 expression ratio vs GFP (.fc) ([4]; gene IFIT5 NM_012420.1, vs lenti-GFP, 24 hours after infection): −0.28 log2 fold change | IFIT5 expression ratio vs NoLenti (.fc) ([4]; gene IFIT5 NM_012420.1, vs uninfected, 24 hours after infection): 0.81 log2 fold change | IFITM1 expression ratio vs GFP (.fc) ([4]; gene IFITM1 NM_003641.3, vs lenti-GFP, 24 hours after infection): 0.34 log2 fold change | IFITM1 expression ratio vs NoLenti (.fc) ([4]; gene IFITM1 NM_003641.3, vs uninfected, 24 hours after infection): 7.08 log2 fold change | IFITM2 expression ratio vs GFP (.fc) ([4]; gene IFITM2 NM_006435.2, vs lenti-GFP, 24 hours after infection): 0.01 log2 fold change | IFITM2 expression ratio vs NoLenti (.fc) ([4]; gene IFITM2 NM_006435.2, vs uninfected, 24 hours after infection): 1.29 log2 fold change
